Laboratory results taken from the supplement of paper PMC12667976.
± gives the standard error.

B1: library; numbered along this chain (parent)
chain: MATDAALRRLLRLHRTEIAVAVDSAFPLLHALADHDVVPEDKFQETLHLKEKEGCPQAFHALLSWLLTQDSTAILDFWRVLFKDYNLERYGRLQPILDSFPKDVDLSQPRKGRKPPAVPKALVPPPRLPTKRKASEEARAAAPAALTPRGTASPGSQLKAKPPKKPESSAEQQRLPLGNGIQTMSASVQRAVAMSSGDVPGARGAVEGILIQQVFESGGSKKCIQVGGEFYTPSKFEDSGSGKNKARSSSGPKPLVRAKGAQGAAPGGGEARLGQQGSVPAPLALPSDPQLHQKNEDECAVCRDGGELICCDGCPRAFHLACLSPPLREIPSGTWRCSSCLQATVQEVQPRAEEPRPQEPPVETPLPPGLRSAGEEVRGPPGEPLAGMDTTLVYKHLPAPPSAAPLPGLDSSALHPLLCVGPEGQQNLAPGARCGVCGDGTDVLRCTHCAAAFHWRCHFPAGTSRPGTGLRCRSCSGDVTPAPVEGVLAPSPARLAPGPAKDDTASHEPALHRDDLESLLSEHTFDGILQWAIQSMARPAAPFPS

Variants of: B1
Assay: AIRE transcriptional activation functional score (insulin promoter-GFP; nonsense median 0, synonymous median 1) (normalised score); higher = higher AIRE activity (more reporter activation)
Conditions: with insulin promoter-GFP reporter in HEK293
Description: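 Deep mutational scan of full-length human AIRE (codon-optimized cDNA, DT-POPCode NNN libraries over three regions) integrated at a Bxb1 landing pad in HEK293 cells carrying an insulin core promoter-GFP reporter at a Flp-In site. Cells were sorted for the top 10% GFP about 14 days after transfection. Variant frequency log-ratios (select vs non-select, TileSeq) were rescaled so that the nonsense median is 0 and the synonymous median is 1, then averaged over biological replicates.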

AIRE transcriptional activation functional score of substitutions, site by site:
L146: K 0.924 ± 0.47, V 0.912 ± 0.45, M 0.496 ± 0.058, T 1.09 ± 0.68, C 0.639 ± 0.064, G 0.344 ± 0.47, P 0.73 ± 0.35, S 1.03 ± 0.42, D 1.73 ± 0.13, W 1.42 ± 0.2, R 0.262 ± 0.57, H 0.618 ± 0.53, Q 1.05 ± 0.36, N 0.353 ± 0.38, F 0.9 ± 0.14, I 0.888 ± 0.25, E 0.882 ± 0.26, A 0.454 ± 0.55, Y 1.24 ± 0.09
R149: Q 1.71 ± 0.2, W 1.11 ± 0.26, S 1.26 ± 0.3, E 1.02 ± 0.19, M 0.41 ± 0.38, I 0.113 ± 0.67, T 0.559 ± 0.36, N 0.726 ± 0.25, G 0.663 ± 0.62, H 1.12 ± 0.097, F 0.857 ± 0.42, Y 0.303 ± 0.2, V 0.621 ± 0.44, C 0.794 ± 0.24, K 0.675 ± 0.64, L 1.22 ± 0.58, D 1.12 ± 0.18, A 1.19 ± 0.18, P 0.874 ± 0.47
Q157: M 0.398 ± 0.14, Y 1.31 ± 0.54, V 0.829 ± 0.34, T 0.825 ± 0.5, L 1.26 ± 0.39, W 0.173 ± 0.069, P 1.1 ± 0.25, R 0.62 ± 0.58, S 1.05 ± 0.49, E 1.26 ± 0.53, C 1.27 ± 0.41, N 0.858 ± 0.49, F 1.5 ± 0.2, I 0.859 ± 0.43, A 1.13 ± 0.74, K 0.787 ± 0.22, H 1.34 ± 0.23, G 1.08 ± 0.46, D 0.498 ± 0.44
T151: W 1.97 ± 0.091, Q 1.28 ± 0.67, K 0.845 ± 0.2, N 0.966 ± 0.16, G 1.36 ± 0.36, F 1.76 ± 0.23, V 1.5 ± 0.29, L 0.905 ± 0.44, C 0.915 ± 0.17, A 1.37 ± 0.58, D 1.27 ± 0.33, I 1.3 ± 0.26, Y 1.44 ± 0.23, S 1.01 ± 0.31, P 1.01 ± 0.39, M 0.378 ± 0.04, H 1.34 ± 0.22, R 0.807 ± 0.43, E 1.13 ± 0.21
A141: T 0.967 ± 0.32, W 1.18 ± 0.22, Y 1.66 ± 0.41, V 1 ± 0.36, S 1.01 ± 0.49
P143: K 0.307 ± 0.16, H 1.09 ± 0.38, A 1.18 ± 0.61, L 1.11 ± 0.19, D 1.01 ± 0.31, G 0.958 ± 0.37, F 1.28 ± 0.05, C 0.956 ± 0.2, T 1.49 ± 0.49, R 0.548 ± 0.3, W 1.15 ± 0.039, Q 1.33 ± 0.33, V 0.964 ± 0.27, S 0.96 ± 0.3, E 1.5 ± 0.46, N 1.32 ± 0.13, Y 1.39 ± 0.15, I 0.862 ± 0.41, M 1.02 ± 0.033
A144: R 0.836 ± 0.55, H 0.0775 ± 0.4, C 1.04 ± 0.26, M 0.931 ± 0.064, T 1.02 ± 0.52, D 0.251 ± 0.65, K 0.364 ± 0.24, F 1.26 ± 0.26, E 0.655 ± 0.26, P 1.65 ± 0.43, V 1.1 ± 0.35, Q 0.126 ± 0.22, I 0.989 ± 0.23, S 0.773 ± 0.41, G 1.31 ± 0.24, L 1.17 ± 0.38, W 1.99 ± 0.039, Y 1.48 ± 0.23, N 0.39 ± 0.33
P154: R 0.579 ± 0.53, G 0.75 ± 0.43, S 0.685 ± 0.35, H 0.26 ± 0.51, W 1.13 ± 0.17, Y 1.68 ± 0.36, V 0.461 ± 0.49, E 0.475 ± 0.28, F 1.89 ± 0.11, M -0.062 ± 0.16, N 0.642 ± 0.3, L 1.36 ± 0.46, Q -0.0735 ± 0.26, K -1.06 ± 0.26, D 0.0296 ± 0.054, I 1.59 ± 0.16, C 0.692 ± 0.45, T 1.35 ± 0.7, A 0.676 ± 0.42
K159: H 1.18 ± 0.71, C 1.14 ± 0.28, D 0.68 ± 0.32, G 0.883 ± 0.64, A 0.394 ± 0.53, E 0.955 ± 0.22, F 1.44 ± 0.11
T147: E 1.45 ± 0.37, D 0.817 ± 0.27, Y 0.76 ± 0.21, G 0.811 ± 0.49, R 1.03 ± 0.44, C 0.358 ± 0.19, L 1.05 ± 0.42, N 1.26 ± 0.56, S 0.771 ± 0.6, I 1.16 ± 0.47, W 1.75 ± 0.18, K 0.787 ± 0.57, V 0.966 ± 0.9, A 0.279 ± 0.55, Q 0.724 ± 0.48, P 0.125 ± 0.5, M 1.19 ± 0.19, H 1.22 ± 1.1, F 1.49 ± 0.13
G150: V 0.822 ± 0.59, K 1.53 ± 0.12, M 0.246 ± 0.27, D -0.34 ± 0.4, R 0.148 ± 0.46, W 2.25 ± 0.039, S 1.63 ± 0.56, F 1.34 ± 0.12, L 1.3 ± 0.56, I 1.08 ± 0.33, T 0.661 ± 0.51, H 1.19 ± 0.08, C 1.38 ± 0.11, P 0.879 ± 0.17, E 0.763 ± 1.3, Y 2.21 ± 0.57, A -0.308 ± 0.47, N 0.149 ± 0.088
L158: E 0.986 ± 0.54, F 1.27 ± 0.11, N 1.19 ± 0.29, Q 0.833 ± 0.56, C 0.528 ± 0.29, R 0.202 ± 0.6, A 0.834 ± 0.42, D 0.772 ± 0.62, W 1.22 ± 0.042, H 0.949 ± 0.3, Y 1.07 ± 0.39, V 0.815 ± 0.39, P 0.723 ± 0.55, S 0.724 ± 0.48, T 0.209 ± 0.54, I 0.959 ± 0.38, K 0.11 ± 0.86, M 0.957 ± 0.086, G 1.33 ± 0.7
A142: D 1.05 ± 0.44, M 0.975 ± 0.063, N 0.413 ± 0.58, P 0.882 ± 0.59, W 1.28 ± 0.14, I 0.926 ± 0.27, L 1.17 ± 0.36, Q -0.0872 ± 0.33, G 1.29 ± 0.26, T 0.704 ± 0.47, V 1.27 ± 0.21, R 0.685 ± 0.49, H 0.486 ± 0.85, Y 1.14 ± 0.12, C 1.03 ± 0.1, F 1.16 ± 0.13, K 0.314 ± 0.24, E 1.17 ± 0.28, S 0.968 ± 0.35
A145: L 1.19 ± 0.45, Y 1.66 ± 0.23, K 0.907 ± 0.56, S 1.4 ± 0.58, W 2.05 ± 0.14, C 1.07 ± 0.26, Q 1.12 ± 0.37, T 1.21 ± 0.8, M 0.474 ± 0.11, I 0.806 ± 0.36, P 0.887 ± 0.31, R 0.804 ± 0.39, F 1.23 ± 0.21, H 1.37 ± 0.19, N 0.349 ± 0.41, E 0.0573 ± 0.43, V 0.722 ± 0.18, G 1.29 ± 0.35, D 0.593 ± 0.25
A152: D 0.696 ± 0.32, C 0.402 ± 0.25, Y 1.21 ± 0.48, S 0.715 ± 0.46, W 1.68 ± 0.4, V 1.17 ± 0.27, F 1.55 ± 0.15, E -0.141 ± 0.22, I 0.777 ± 0.33, N 0.485 ± 0.32, Q 0.894 ± 0.41, T 1.32 ± 0.64, R 0.913 ± 0.49, G 0.815 ± 0.37, K 0.993 ± 0.36, L 1.19 ± 0.46, M 1.86 ± 0.072, H 0.789 ± 0.29, P 0.594 ± 1
S156: G 0.917 ± 0.37, V 1.13 ± 0.6, M 0.855 ± 0.078, I 1.37 ± 0.37, Q 0.543 ± 0.33, H 0.981 ± 0.23, T 1.75 ± 0.85, F 1.53 ± 0.14, E 0.377 ± 0.46, R 0.968 ± 0.47, Y 0.901 ± 0.32, N 1.39 ± 0.5, L 1.55 ± 0.51, C 1.38 ± 0.2, D 0.928 ± 0.48, A 0.976 ± 0.7, P 0.405 ± 0.26, K 0.349 ± 0.15, W 1.64 ± 0.071
S153: E 1.14 ± 0.16, C 1.2 ± 0.24, T 0.818 ± 0.56, L 1.16 ± 0.42, P 1.7 ± 0.17, M 1.09 ± 0.36, V 0.888 ± 0.29, N 0.697 ± 0.74, G 1.21 ± 0.36, W 1.4 ± 0.025, K 0.285 ± 0.37, I 1.03 ± 0.44, A 0.85 ± 0.41, D 0.728 ± 0.95, F 1.67 ± 0.13, Q 0.582 ± 0.29, Y 0.691 ± 0.65, R 0.588 ± 0.29, H 1.41 ± 0.56
G155: F 1.61 ± 0.35, L 0.509 ± 0.4, R 1.01 ± 0.47, I 0.209 ± 0.65, W 1.83 ± 0.1, E 0.777 ± 0.83, H 1.71 ± 0.16, S 0.589 ± 0.56, P -0.203 ± 0.099, C 0.555 ± 0.12, Y 1.19 ± 0.37, T 0.66 ± 0.12, K 0.662 ± 0.7, A 1.44 ± 0.52, V 0.534 ± 0.28, D 0.338 ± 0.16, Q -0.156 ± 0.43, N 0.154 ± 0.25, M 2.34 ± 0.066
P148: L 1.45 ± 0.61, I 1.49 ± 0.64, G 0.361 ± 0.76, V 1.45 ± 0.56, C 1.31 ± 0.56, W 0.0844 ± 0.061, D 0.772 ± 0.85, E 1.67 ± 0.49, H 0.972 ± 0.24, Y 1.97 ± 0.079, F 1.53 ± 0.23, M 0.633 ± 0.3, R 0.931 ± 0.74, N 0.598 ± 0.25, Q 1.14 ± 0.68, T 1.29 ± 0.8, A 0.746 ± 0.41, K -0.163 ± 0.16, S 1.19 ± 0.36
